One molecule from paper PMC10269845, “Hijacking of Host Plasminogen by Mesomycoplasma (Mycoplasma) hyopneumoniae via GAPDH: an Important Virulence Mechanism To Promote Adhesion and Extracellular Matrix Degradation” (Microbiology Spectrum, 2023) can be followed below.

This experiment addresses plasminogen (UniProt P00747 20-810). Description: SPR. Conditions: both partners purified.

Sequence of plasminogen (P00747 20-810): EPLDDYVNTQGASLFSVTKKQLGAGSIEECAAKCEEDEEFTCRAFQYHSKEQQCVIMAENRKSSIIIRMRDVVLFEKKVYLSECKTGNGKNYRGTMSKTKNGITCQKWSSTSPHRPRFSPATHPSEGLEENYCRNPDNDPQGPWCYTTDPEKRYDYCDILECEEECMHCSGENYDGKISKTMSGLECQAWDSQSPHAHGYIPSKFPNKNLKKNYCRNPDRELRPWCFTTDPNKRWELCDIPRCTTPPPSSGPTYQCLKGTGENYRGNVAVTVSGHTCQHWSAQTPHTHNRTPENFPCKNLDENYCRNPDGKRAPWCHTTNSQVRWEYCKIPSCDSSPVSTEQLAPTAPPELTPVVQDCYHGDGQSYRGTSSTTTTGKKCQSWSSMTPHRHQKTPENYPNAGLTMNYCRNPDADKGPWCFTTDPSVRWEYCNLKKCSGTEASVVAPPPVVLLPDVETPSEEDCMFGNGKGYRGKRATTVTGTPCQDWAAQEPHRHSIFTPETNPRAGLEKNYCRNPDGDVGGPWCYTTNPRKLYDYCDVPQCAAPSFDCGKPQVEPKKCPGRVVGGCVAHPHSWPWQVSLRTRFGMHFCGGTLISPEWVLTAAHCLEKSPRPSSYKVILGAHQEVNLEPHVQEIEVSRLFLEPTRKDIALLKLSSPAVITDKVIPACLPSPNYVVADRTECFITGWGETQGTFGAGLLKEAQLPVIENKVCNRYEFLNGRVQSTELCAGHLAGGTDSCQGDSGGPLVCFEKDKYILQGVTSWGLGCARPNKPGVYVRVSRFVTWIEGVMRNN

B1: Recombinant glyceraldehyde-3-phosphate dehydrogenase (GAPDH) of Mesomycoplasma (Mycoplasma) hyopneumoniae strain 168 (enzyme)
chain: MKKIAINGFGRIGRLALRRLFEVNDENLQVVAINDLTDASVLAHLFKYDSAHGKFNGEVEVLKDNGKNYLKIKGQKILVLSERDPKSLPWGQLGIDLVVECTGFFASKSGASQHLEAGAKKVIISAPAGNDVKTIVYNVNCDTITEDDRILSSASCTTNALAPLVNALDKEFGINHGFMTTIHAYTADQRLQDAPHGDLRRARAAGVNLVPSSTGAAKAIGLVVPSLTGKLDGIAIRVPVITGSFVDLSVELKSNPSIEEINQKMREYANESFAYCDEPIVSSDIIGDRHGSIFDATLTKYIEANGKRLYKLYTWYDNEYSFVSQFVRVIRDFVQK
notes: also called rGAPDH; source: E. coli BL21(DE3), pET-32a, purified (Ni resin FF)
Usually Kd stands for the concentration at which binding is half-saturated. Read a high Kd as lower affinity. The molecule B1 showed a Kd of 376 nM.
